Here are results for two substances from PMC7469880.

The target in the test is FIRΔexon2-FLAG (splice variant of FIR lacking exon 2, FLAG-tagged) (human). The test is described as follows: co-IP.

The substance “SAP155 (subunit of splicing factor 3b), endogenous in HeLa (from UniProt O75533 1-1304) (natural protein)” gave an amount detected relative to the FIR–FLAG complex (1.0) of 0.1. The figure for “SAP130 (subunit of splicing factor 3b), endogenous in HeLa (from UniProt Q15393 1-1217) (natural protein)” is 0.35.
